According to PMC3823998, “Structural and Functional Characterization of the Redβ Recombinase from Bacteriophage λ” (PLoS ONE, 2013):
Positions count from the first letter of the chain named.

Key:
Experiment in all cases: EMSA; glutaraldehyde-fixed; ssDNA EMSA: 10 nM DNA, 50 mM potassium phosphate pH 6.0, 5 mM EDTA, 5% glycerol, 0.1 mg/ml BSA, 37°C, 40 min, then 0.1% glutaraldehyde; second-strand EMSA: 5 nM each strand, 20 mM Tris-HCl pH 7.5, 5 mM MgCl2, 1 mM DTT, 0.1 mg/ml BSA, 37°C
Redβ WT = target: T1, Redβ WT (Bacteriophage λ (Enterobacteria phage λ), UniProt P03698 1-261); details: protein: recombinant; tags: N-terminal His6 removed by thrombin; Gly-Ser-His left before Met1; label: 5' Cy3
T1 sequence: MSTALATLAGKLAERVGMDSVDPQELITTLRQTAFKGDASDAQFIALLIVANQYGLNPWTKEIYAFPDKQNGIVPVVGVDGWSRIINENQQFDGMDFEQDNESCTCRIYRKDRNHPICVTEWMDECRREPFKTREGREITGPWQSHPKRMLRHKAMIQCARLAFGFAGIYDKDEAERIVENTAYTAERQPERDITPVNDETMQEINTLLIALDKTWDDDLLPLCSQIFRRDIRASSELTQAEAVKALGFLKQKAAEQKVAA

Redβ K172A = target: T2, Redβ K172A (Bacteriophage λ (Enterobacteria phage λ), UniProt P03698 1-261, K172A); details: protein: recombinant; tags: His6 removed; N-terminal GSH left; label: 5' Cy3
T2 sequence: T1 sequence with K172A

Redβ K148A = target: T3, Redβ K148A (Bacteriophage λ (Enterobacteria phage λ), UniProt P03698 1-261, K148A); details: protein: recombinant; tags: His6 removed; N-terminal GSH left; label: 5' Cy3
T3 sequence: T1 sequence with K148A

Redβ K69A = target: T4, Redβ K69A (Bacteriophage λ (Enterobacteria phage λ), UniProt P03698 1-261, K69A); details: protein: recombinant; tags: His6 removed; N-terminal GSH left; label: 5' Cy3
T4 sequence: T1 sequence with K69A

Redβ V79A = target: T5, Redβ V79A (Bacteriophage λ (Enterobacteria phage λ), UniProt P03698 1-261, V79A); details: protein: recombinant; tags: His6 removed; N-terminal GSH left; label: 5' Cy3
T5 sequence: T1 sequence with V79A

Redβ R161A = target: T6, Redβ R161A (Bacteriophage λ (Enterobacteria phage λ), UniProt P03698 1-261, R161A); details: protein: recombinant; tags: His6 removed; N-terminal GSH left; label: 5' Cy3
T6 sequence: T1 sequence with R161A

TGCGGATGGCTTAGAGCTTAATTGCTGAATCTGGTGCTGTAGCTCAACAT (ssDNA) [50-minus ssDNA]
binding result (Redβ WT): binds | binding signal (Redβ K172A): 76 % of WT binding at 3 µM protein | binding signal (Redβ K148A): 43 % of WT binding at 3 µM protein | binding signal (Redβ K69A): 94 % of WT binding at 3 µM protein | binding signal (Redβ V79A): 21 % of WT binding at 3 µM protein | binding signal (Redβ R161A): 11 % of WT binding at 3 µM protein
